Data on two molecules can be found in patent publication US20240052048A1 (SUZHOU QIN PHARMACEUTICALS, published 2024).

Where two headings read alike, the source gives them in different places.

To fix the notation:
B2: human BCMA (recombinant antigen, tag not stated for the assay) (receptor, UniProt Q02223 1-54, looked up)
chain: MLQMAGQCSQNEYFDSLLHACIPCQLRCSSNTPPLTCQRYCNASVTNSVKGTNA
notes: The ELISA and screening sections say only 'human BCMA'; also called human BCMA antigen

For assay [1], the target named is T1, human-BCMA-Fc (human, UniProt Q02223 1-54).
T1 construct: Bought from ACRO Biosystems, catalog BC7-H5254; also called ACRO Biosystems BC7-H5254; not shown: Fc tag
T1 sequence (looked up): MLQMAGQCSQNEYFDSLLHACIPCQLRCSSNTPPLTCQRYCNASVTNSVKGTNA
The experiment in a line: BLI (Octet RED96), antibody on FAB2G sensor, human BCMA-Fc at 200, 50, 12.5 nM.

Assay [2] concerns the target B2. The experiment in a line: ELISA (OD450) on coated human BCMA; EC50 table in the figure. On the technique in general: In an ELISA, binding on a coated surface is turned into a signal by an enzyme label.
The target of assay [3] is T2, monkey BCMA (recombinant antigen, tag not stated for the assay) (monkey, UniProt A0A2K5UD97 1-53).
T2 construct: The ELISA, screening and BLI sections say only 'monkey BCMA' or 'monkey BCMA protein'; also called monkey BCMA protein; monkey BCMA antigen; not shown: The carrier tag (human IgG1 Fc or His tag) of the bought ACRO antigen
The assay can be described thus: ELISA (OD450) on coated monkey BCMA; EC50 table in the figure.

In assay [4] the target is T2, monkey BCMA (recombinant antigen, tag …). The experiment in a line: BLI (Octet RED96), antibody on FAB2G sensor, monkey BCMA protein at 200, 50, 12.5 nM. In general terms: In BLI a coated tip is dipped into the sample, and binding shifts an interference pattern.
Assay [5] concerns the target T3, human BCMA on H929 cells (human, UniProt Q02223 1-184).
T3 construct: whole, on cells; also called human myeloma cell line H929 cells expressing BCMA
T3 sequence (looked up): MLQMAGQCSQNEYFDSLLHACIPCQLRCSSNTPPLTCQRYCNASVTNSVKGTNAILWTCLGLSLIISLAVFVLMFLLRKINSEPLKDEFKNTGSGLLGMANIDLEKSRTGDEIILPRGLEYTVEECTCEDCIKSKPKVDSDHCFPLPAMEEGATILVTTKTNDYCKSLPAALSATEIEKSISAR
The assay can be described thus: flow cytometry (MFI) on myeloma cell line H929 expressing BCMA; EC50 table in the figure; curve still rising at about 60 µg/mL.

For assay [6], the target named is T4, monkey BCMA on BCMA-CHO cells (cynomolgus monkey, UniProt A0A2K5UD97 1-183).
T4 construct: whole, on cells; also called monkey BCMA-CHO cells; CHO cells overexpressing monkey BCMA
The assay can be described thus: flow cytometry (MFI) on CHO cells expressing monkey BCMA; EC50 table in the figure. (A flow cytometer gives signals particle by particle.)

The target of assay [7] is T5, human-BCMA-His (human, UniProt Q02223 1-54).
T5 construct: Bought from ACRO Biosystems, catalog BCA-H522y; also called ACRO Biosystems BCA-H522y; not shown: His tag
T5 sequence (looked up): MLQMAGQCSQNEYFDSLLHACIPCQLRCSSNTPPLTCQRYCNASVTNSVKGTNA
The assay can be described thus: ELISA (OD450), GSK2857916 titrated up to 10 µg/mL on Human BCMA-His; EC50 table in the figure.

For assay [8], the target named is T1, human-BCMA-Fc. The assay can be described thus: ELISA (OD450), GSK2857916 titrated up to 10 µg/mL on Human BCMA-Fc; EC50 table in the figure.
Assay [9] concerns the target B2. The assay can be described thus: ELISA (OD450) on coated human BCMA; EC50 table in the figure. This is another data set of the same source.
The target of assay [10] is B2. The description is as above. This is another data set of the same source.
Assay [11] concerns the target T6, Biotin-labeled human BCMA (human, UniProt Q02223 1-54, limits assumed, Biotin-labeled (site not stated)).
T6 sequence (looked up): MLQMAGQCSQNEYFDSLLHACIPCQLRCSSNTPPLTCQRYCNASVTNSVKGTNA
The assay can be described thus: blocking ELISA (OD450): human BAFF coated, antibody premixed with Biotin-labeled human BCMA; blocked ligand BAFF; IC50 table in the figure.

Assay [12] concerns the target T7, human BCMA on BCMA-HEK293 cells (human, UniProt Q02223 1-184).
T7 construct: whole, on cells; also called human BCMA-HEK293 cells; HEK293 cells overexpressing human BCMA
T7 sequence (looked up): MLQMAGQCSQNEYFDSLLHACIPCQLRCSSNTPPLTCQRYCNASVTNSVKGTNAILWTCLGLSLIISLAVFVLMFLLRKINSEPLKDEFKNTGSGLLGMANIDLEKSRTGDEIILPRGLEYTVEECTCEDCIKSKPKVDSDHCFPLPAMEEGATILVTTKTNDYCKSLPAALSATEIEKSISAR
The experiment in a line: flow cytometry (MFI) on HEK293 cells expressing human BCMA; EC50 table in the figure.

Assay [13] addresses T2, monkey BCMA (recombinant antigen, tag …). The experiment in a line: ELISA (OD450) on coated monkey BCMA; EC50 table in the figure. This is another data set of the same source.
Assay [14] concerns the target T6, Biotin-labeled human BCMA. The assay can be described thus: blocking ELISA (OD450): human APRIL coated, antibody premixed with Biotin-labeled human BCMA; blocked ligand APRIL; IC50 table in the figure.
The target of assay [15] is T6, Biotin-labeled human BCMA. The assay can be described thus: blocking ELISA (OD450): human BAFF coated, antibody premixed with Biotin-labeled human BCMA; blocked ligand BAFF; IC50 table in the figure. The source holds these as a separate data set.
For assay [16], the target named is T6, Biotin-labeled human BCMA. The assay is described as above. This is another data set of the same source.
For assay [17], the target named is T4, monkey BCMA on BCMA-CHO cells. The experiment in a line: flow cytometry (MFI) on CHO cells expressing monkey BCMA; EC50 table in the figure; curve still rising at 10 µg/mL.
For assay [18], the target named is T6, Biotin-labeled human BCMA. The experiment in a line: blocking ELISA (OD450): human APRIL coated, antibody premixed with Biotin-labeled human BCMA; blocked ligand APRIL; IC50 table in the figure. The source holds these as a separate data set.
Assay [19] has as its target T2, monkey BCMA (recombinant antigen, tag …). The assay can be described thus: ELISA (OD450) on coated monkey BCMA; EC50 table in the figure. This is another data set of the same source.
The target in assay [20] is T6, Biotin-labeled human BCMA. The experiment in a line: blocking ELISA (OD450): human APRIL coated, antibody premixed with Biotin-labeled human BCMA; blocked ligand APRIL; IC50 table in the figure. This is another data set of the same source.
For assay [21], the target named is T7, human BCMA on BCMA-HEK293 cells. The assay can be described thus: flow cytometry (MFI) on HEK293 cells expressing human BCMA; EC50 table in the figure. The source holds these as a separate data set.
Assay [22] deals with T8, human-APRIL-Fc (human, UniProt O75888 115-250, limits assumed).
T8 construct: Bought from ACRO Biosystems, APL-H5267; also called human APRIL protein; ACRO Biosystems APL-H5267; not shown: Fc tag
T8 sequence (looked up): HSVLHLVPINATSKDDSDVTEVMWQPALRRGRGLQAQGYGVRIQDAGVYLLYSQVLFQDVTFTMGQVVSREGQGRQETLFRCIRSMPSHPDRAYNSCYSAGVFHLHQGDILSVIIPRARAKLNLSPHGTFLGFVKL
The experiment in a line: ELISA (OD450), plate coated with APRIL 1 µg/ml, human BCMA titrated up to 10 µg/mL; EC50 table in the figure.

Assay [23] addresses T8, human-APRIL-Fc. The experiment in a line: ELISA (OD450), plate coated with APRIL 2 µg/ml, human BCMA titrated up to 10 µg/mL; EC50 table in the figure.
Assay [24] has as its target T8, human-APRIL-Fc. The assay can be described thus: ELISA (OD450), plate coated with APRIL 4 µg/ml, human BCMA titrated up to 10 µg/mL; EC50 table in the figure.
Assay [25] has as its target T8, human-APRIL-Fc. The experiment in a line: ELISA (OD450), plate coated with APRIL 8 µg/ml, human BCMA titrated up to 10 µg/mL; EC50 table in the figure.

As a reminder, the Kd is the concentration at which binding is half-saturated. What is called koff is the first-order rate constant of dissociation. Broadly, the kon is a measure of how fast the partners come together. By EC50 is commonly meant the midpoint of the concentration-response curve. The term IC50 denotes the concentration that gives 50% inhibition.

T2 sequence (A0A2K5UD97 entry or part of it limits assumed): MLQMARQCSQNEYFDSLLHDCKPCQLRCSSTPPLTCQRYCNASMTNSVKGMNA
T4 sequence (A0A2K5UD97 entry or part of it): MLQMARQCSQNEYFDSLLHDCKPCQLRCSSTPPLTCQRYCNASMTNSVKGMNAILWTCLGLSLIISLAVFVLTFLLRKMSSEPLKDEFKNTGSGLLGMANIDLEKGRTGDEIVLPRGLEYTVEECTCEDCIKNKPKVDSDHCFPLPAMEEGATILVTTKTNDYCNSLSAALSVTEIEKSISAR

B1: GSK2857916 (positive control antibody, not coupled to the toxin molecule) (antibody, V domains shown)
VH: QVQLVQSGAEVKKPGSSVKVSCKASGGTFSNYWMHWVRQAPGQGLEWMGATYRGHSDTYYNQKFKGRVTITADKSTSTAYMELSSLRSEDTAVYYCARGAIYDGYDVLDNWGQGTLVTVSS
VL: DIQMTQSPSSLSASVGDRVTITCSASQDISNYLNWYQQKPGKAPKLLIYYTSNLHSGVPSRFSGSGSGTDFTLTISSLQPEDFATYYCQQYRKLPWTFGQGTKLEIK
notes: also called Belantamab mafodotin antibody; positive antibody
Turning to B1, the dissociation constant Kd in [1] was determined as 0.0539 nM; in assay [4] it was 0.352 nM. Further, the koff in [1] was 1.19e-05 s⁻¹; in assay [4] it was 0.000111 s⁻¹. In addition, the values for the on-rate (kon) in assay [1] and in assay [4] were 220000 M⁻¹ s⁻¹ and 317000 M⁻¹ s⁻¹, respectively. In addition, the EC50 was 0.772 µg/mL in assay [2]; 0.749 µg/mL in assay [3]; 6.8 µg/mL in assay [5]; 2.88 µg/mL in [6]; 0.77 µg/mL in assay [7]; 0.304 µg/mL in assay [8]. For the same molecule, the EC50 turned out to be 0.642 µg/mL in assay [9]; 0.514 µg/mL in assay [10]; 0.293 µg/mL in assay [12]; 0.341 µg/mL in [13]; 7.22 µg/mL in assay [17]; 0.862 µg/mL in assay [19]. In [21], the 50% effective concentration (EC50) came out at 1.09 µg/mL. In addition, the IC50 in [11] was 1.41 µg/mL; in assay [14] it was 1.79 µg/mL; in assay [15], 1.37 µg/mL; in [16], 1.36 µg/mL; in assay [18], 1.51 µg/mL; in [20], 1.6 µg/mL.

Consider B2, for which the EC50 amounted to 1.07 µg/mL in [22], 1.28 µg/mL in [23], 1.57 µg/mL in [24] and 2.05 µg/mL in assay [25].
